From patent US20260242735A1 (UNIVERSIT T BASEL, published 2026)

What was measured:
Assay in all cases: alanine scan, flow cytometry, HEK293-T;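 also: antibody binding to each alanine-substituted CD33 mutant expressed transiently in HEK293-T, read as fluorescence minus background, mean of duplicates, relative to wild-type CD33 set as 100%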
human CD33 F177A = human CD33 F177A (human, UniProt P20138 18-364)
Protocol: (§1) An alanine scan on human CD33 was performed to the determine the residues on CD33 that are involved in binding to the antibodies investigated. […] Briefly, a mutation library of CD33 was created by high-throughput, site-directed mutagenesis. Each residue was individually mutated to alanine, with alanine codons mutated to serine. The mutant library was arrayed in 384-well microplates and transiently transfected into HEK293-T. Following transfection, cells were incubated with the indicated antibodies (IgG or Fab) at concentrations pre-determined using an independent immunofluorescence titration curve on wild type CD33. […] Binding of each antibody to each mutant clone was determined in duplicates. For each point, background fluorescence was subtracted from the raw data, which were then normalized to antibody reactivity with wild type CD33.
(§2) Critical residues for antibody binding (outlined in dark grey) were residues whose mutations led to a binding of the test Abs of less than 20%. Additional secondary residues (outlined in light grey) were identified that led to a binding of the test Abs of between 20 and 40% as compared to the wild type CD33.

human CD33 S181A = human CD33 S181A (human, UniProt P20138 18-364)
Protocol: as §1, §2

human CD33 A182S = human CD33 A182S (human, UniProt P20138 18-364)
human CD33 A182S, sequence (P20138 18-364 A182S limits assumed): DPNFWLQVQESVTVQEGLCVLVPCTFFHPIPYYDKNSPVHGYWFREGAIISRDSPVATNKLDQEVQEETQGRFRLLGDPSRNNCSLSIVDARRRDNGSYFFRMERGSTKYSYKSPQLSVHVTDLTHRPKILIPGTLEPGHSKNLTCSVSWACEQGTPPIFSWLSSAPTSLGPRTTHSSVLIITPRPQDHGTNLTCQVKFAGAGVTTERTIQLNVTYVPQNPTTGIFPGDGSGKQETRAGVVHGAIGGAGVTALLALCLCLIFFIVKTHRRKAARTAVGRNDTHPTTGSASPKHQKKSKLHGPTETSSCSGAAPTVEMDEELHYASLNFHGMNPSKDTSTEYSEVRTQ
Protocol: as §1, §2

human CD33 T185A = human CD33 T185A (human, UniProt P20138 18-364)
human CD33 T185A, sequence (P20138 18-364 T185A limits assumed): as the sequence (P20138 18-364 A182S limits assumed) above, with S165A, T168A counted along it
Protocol: as §1, §2

human CD33 P189A = human CD33 P189A (human, UniProt P20138 18-364)
human CD33 P189A, sequence (P20138 18-364 P189A limits assumed): as the sequence (P20138 18-364 A182S limits assumed) above, with S165A, P172A counted along it
Protocol: as §1, §2

human CD33 T191A = human CD33 T191A (human, UniProt P20138 18-364)
human CD33 T191A, sequence (P20138 18-364 T191A limits assumed): as the sequence (P20138 18-364 A182S limits assumed) above, with S165A, T174A counted along it
Protocol: as §1, §2

human CD33 S194A = human CD33 S194A (human, UniProt P20138 18-364)
human CD33 S194A, sequence (P20138 18-364 S194A limits assumed): as the sequence (P20138 18-364 A182S limits assumed) above, with S165A, S177A counted along it
Protocol: as §1, §2

human CD33 T200A = human CD33 T200A (human, UniProt P20138 18-364)
human CD33 T200A, sequence (P20138 18-364 T200A limits assumed): as the sequence (P20138 18-364 A182S limits assumed) above, with S165A, T183A counted along it
Protocol: as §1, §2

human CD33 Q204A = human CD33 Q204A (human, UniProt P20138 18-364)
Protocol: as §1, §2

human CD33 H206A = human CD33 H206A (human, UniProt P20138 18-364)
human CD33 H206A, sequence (P20138 18-364 H206A limits assumed): as the sequence (P20138 18-364 A182S limits assumed) above, with S165A, H189A counted along it
Protocol: as §1, §2

human CD33 N209A = human CD33 N209A (human, UniProt P20138 18-364)
human CD33 N209A, sequence (P20138 18-364 N209A limits assumed): as the sequence (P20138 18-364 A182S limits assumed) above, with S165A, N192A counted along it
Protocol: as §1, §2

human CD33 Q213A = human CD33 Q213A (human, UniProt P20138 18-364)
Protocol: as §1, §2

human CD33 G218A = human CD33 G218A (human, UniProt P20138 18-364)
human CD33 G218A, sequence (P20138 18-364 G218A limits assumed): as the sequence (P20138 18-364 A182S limits assumed) above, with S165A, G201A counted along it
Protocol: as §1, §2

human CD33 A168S = human CD33 A168S (human, UniProt P20138 18-364)
human CD33 A168S, sequence (P20138 18-364 A168S limits assumed): as the sequence (P20138 18-364 A182S limits assumed) above, with A151S, S165A counted along it
Protocol: as §1, §2

human CD33 T222A = human CD33 T222A (human, UniProt P20138 18-364)
human CD33 T222A, sequence (P20138 18-364 T222A limits assumed): as the sequence (P20138 18-364 A182S limits assumed) above, with S165A, T205A counted along it
Protocol: as §1, §2

human CD33 T223A = human CD33 T223A (human, UniProt P20138 18-364)
Protocol: as §1, §2

human CD33 C169A = human CD33 C169A (human, UniProt P20138 18-364)
Protocol: as §1, §2

human CD33 P235A = human CD33 P235A (human, UniProt P20138 18-364)
Protocol: as §1, §2

human CD33 Q236A = human CD33 Q236A (human, UniProt P20138 18-364)
human CD33 Q236A, sequence (P20138 18-364 Q236A limits assumed): as the sequence (P20138 18-364 A182S limits assumed) above, with S165A, Q219A counted along it
Protocol: as §1, §2

human CD33 E170A = human CD33 E170A (human, UniProt P20138 18-364)
human CD33 E170A, sequence (P20138 18-364 E170A limits assumed): as the sequence (P20138 18-364 A182S limits assumed) above, with E153A, S165A counted along it
Protocol: as §1, §2

human CD33 K250A = human CD33 K250A (human, UniProt P20138 18-364)
Protocol: as §1, §2

human CD33 V258A = human CD33 V258A (human, UniProt P20138 18-364)
Protocol: as §1, §2

human CD33 A261S = human CD33 A261S (human, UniProt P20138 18-364)
Protocol: as §1, §2

human CD33 G263A = human CD33 G263A (human, UniProt P20138 18-364)
Protocol: as §1, §2

human CD33 A272S = human CD33 A272S (human, UniProt P20138 18-364)
Protocol: as §1, §2

human CD33 L275A = human CD33 L275A (human, UniProt P20138 18-364)
Protocol: as §1, §2

human CD33 F279A = human CD33 F279A (human, UniProt P20138 18-364)
Protocol: as §1, §2

human CD33 K283A = human CD33 K283A (human, UniProt P20138 18-364)
Protocol: as §1, §2

human CD33 T284A = human CD33 T284A (human, UniProt P20138 18-364)
Protocol: as §1, §2

human CD33 R291A = human CD33 R291A (human, UniProt P20138 18-364)
Protocol: as §1, §2

human CD33 P244A = human CD33 P244A (human, UniProt P20138 18-364)
Protocol: as §1, §2

human CD33 D298A = human CD33 D298A (human, UniProt P20138 18-364)
Protocol: as §1, §2

human CD33 T303A = human CD33 T303A (human, UniProt P20138 18-364)
Protocol: as §1, §2

human CD33 P308A = human CD33 P308A (human, UniProt P20138 18-364)
Protocol: as §1, §2

human CD33 K313A = human CD33 K313A (human, UniProt P20138 18-364)
Protocol: as §1, §2

human CD33 S314A = human CD33 S314A (human, UniProt P20138 18-364)
Protocol: as §1, §2

human CD33 F177A, sequence (P20138 18-364 F177A limits assumed): as the sequence (P20138 18-364 A182S limits assumed) above, with F160A, S165A counted along it

B1: Refmab #4 (antibody, V domains shown)
VH: QVQLVQSGAEVKKPGESVKVSCKASGYTFTNYGMNWVKQAPGQGLEWMGWINTYTGEPTYADKFQGRVTMTTDTSTSTAYMEIRNLGGDDTAVYYCARWSWSDGYYVYFDYWGQGTSVTVSS
VL: DIVMTQSPDSLTVSLGERTTINCKSSQSVLDSSTNKNSLAWYQQKPGQPPKLLLSWASTRESGIPDRFSGSGSGTDFTLTIDSPQPEDSATYYCQQSAHFPITFGQGTRLEIK
notes: In the alanine scan antibodies were used as IgG or Fab
Human CD33 F177A
  Mean % WT Binding: 25.4%
Human CD33 S181A
  Mean % WT Binding: 114%
Human CD33 A182S
  Mean % WT Binding: 108%
Human CD33 T185A
  Mean % WT Binding: 98.9%
Human CD33 P189A
  Mean % WT Binding: 98.2%
Human CD33 T191A
  Mean % WT Binding: 95.1%
Human CD33 S194A
  Mean % WT Binding: 79%
Human CD33 T200A
  Mean % WT Binding: 88.8%
Human CD33 Q204A
  Mean % WT Binding: 99.8%
Human CD33 H206A
  Mean % WT Binding: 97.7%
Human CD33 N209A
  Mean % WT Binding: 88.1%
Human CD33 Q213A
  Mean % WT Binding: 103%
Human CD33 G218A
  Mean % WT Binding: 102%
Human CD33 A168S
  Mean % WT Binding: 99.9%
Human CD33 T222A
  Mean % WT Binding: 109%
Human CD33 T223A
  Mean % WT Binding: 106%
Human CD33 C169A
  Mean % WT Binding: 69.3%
Human CD33 P235A
  Mean % WT Binding: 101%
Human CD33 Q236A
  Mean % WT Binding: 103%
Human CD33 E170A
  Mean % WT Binding: 95.5%

B2: Refmab #3 (antibody, V domains shown)
VH: QVQLVQSGAEVKKPGSSVKVSCKASGYTFTDYNMHWVRQAPGQGLEWIGYIYPYNGGTGYNQKFKSKATITADESTNTAYMELSSLRSEDTAVYYCARGRPAMDYWGQGTLVTVSS
VL: DIQMTQSPSSLSASVGDRVTITCRASESVDNYGISFMNWFQQKPGKAPKLLIYAASNQGSGVPSRFSGSGSGTDFTLTISSLQPDDFATYYCQQSKEVPWTFGQGTKVEIK
notes: as for B1
Human CD33 F177A
  Mean % WT Binding: 60.4%
Human CD33 S181A
  Mean % WT Binding: 128%
Human CD33 A182S
  Mean % WT Binding: 127%
Human CD33 T185A
  Mean % WT Binding: 105%
Human CD33 P189A
  Mean % WT Binding: 95.5%
Human CD33 T191A
  Mean % WT Binding: 80%
Human CD33 S194A
  Mean % WT Binding: 101%
Human CD33 T200A
  Mean % WT Binding: 82.4%
Human CD33 Q204A
  Mean % WT Binding: 126%
Human CD33 H206A
  Mean % WT Binding: 97.3%
Human CD33 N209A
  Mean % WT Binding: 91.7%
Human CD33 Q213A
  Mean % WT Binding: 135%
Human CD33 G218A
  Mean % WT Binding: 143%
Human CD33 A168S
  Mean % WT Binding: 99.2%
Human CD33 T222A
  Mean % WT Binding: 117%
Human CD33 T223A
  Mean % WT Binding: 93.5%
Human CD33 C169A
  Mean % WT Binding: 115%
Human CD33 P235A
  Mean % WT Binding: 120%
Human CD33 Q236A
  Mean % WT Binding: 104%
Human CD33 E170A
  Mean % WT Binding: 148%

B3: Refmab #1 (antibody, V domains shown)
VH: EVQLVQSGAEVKKPGSSVKVSCKASGYTITDSNIHWVRQAPGQSLEWIGYIYPYNGGTDYNQKFKNRATLTVDNPTNTAYMELSSLRSEDTAFYYCVNGNPWLAYWGQGTLVTVSS
VL: DIQLTQSPSTLSASVGDRVTITCRASESLDNYGIRFLTWFQQKPGKAPKLLMYAASNQGSGVPSRFSGSGSGTEFTLTISSLQPDDFATYYCQQTKEVPWSFGQGTKVEVK
notes: In the alanine scan antibodies were used as IgG or Fab; also called hP67.6
Human CD33 F177A
  Mean % WT Binding: 68.4%
Human CD33 S181A
  Mean % WT Binding: 85.5%
Human CD33 A182S
  Mean % WT Binding: 85.8%
Human CD33 T185A
  Mean % WT Binding: 92.3%
Human CD33 P189A
  Mean % WT Binding: 89.2%
Human CD33 T191A
  Mean % WT Binding: 91.4%
Human CD33 S194A
  Mean % WT Binding: 93.7%
Human CD33 T200A
  Mean % WT Binding: 85.2%
Human CD33 Q204A
  Mean % WT Binding: 93.7%
Human CD33 H206A
  Mean % WT Binding: 98.8%
Human CD33 N209A
  Mean % WT Binding: 92.1%
Human CD33 Q213A
  Mean % WT Binding: 95.3%
Human CD33 G218A
  Mean % WT Binding: 79.2%
Human CD33 A168S
  Mean % WT Binding: 88.4%
Human CD33 T222A
  Mean % WT Binding: 88.7%
Human CD33 T223A
  Mean % WT Binding: 103%
Human CD33 C169A
  Mean % WT Binding: 75.8%
Human CD33 P235A
  Mean % WT Binding: 81.4%
Human CD33 Q236A
  Mean % WT Binding: 89.5%
Human CD33 E170A
  Mean % WT Binding: 90.9%

B4: Refmab #1 (antibody, V domains shown)
VH: B3 VH
VL: B3 VL
notes: The alanine scan used IgG or Fab; also called hP67.6
Human CD33 K250A
  Mean % WT Binding: 86.7 % WT binding
Human CD33 V258A
  Mean % WT Binding: 99.8 % WT binding
Human CD33 A261S
  Mean % WT Binding: 84.1 % WT binding
Human CD33 G263A
  Mean % WT Binding: 98.9 % WT binding
Human CD33 A272S
  Mean % WT Binding: 87.6 % WT binding
Human CD33 L275A
  Mean % WT Binding: 88.7 % WT binding
Human CD33 F279A
  Mean % WT Binding: 104 % WT binding
Human CD33 K283A
  Mean % WT Binding: 92.7 % WT binding
Human CD33 T284A
  Mean % WT Binding: 92.8 % WT binding
Human CD33 R291A
  Mean % WT Binding: 97.8 % WT binding
Human CD33 P244A
  Mean % WT Binding: 84.3 % WT binding
Human CD33 D298A
  Mean % WT Binding: 97.8 % WT binding
Human CD33 T303A
  Mean % WT Binding: 94 % WT binding
Human CD33 P308A
  Mean % WT Binding: 94.3 % WT binding
Human CD33 K313A
  Mean % WT Binding: 84.1 % WT binding
Human CD33 S314A
  Mean % WT Binding: 96.2 % WT binding

B5: Refmab #2 (antibody, V domains shown)
VH: QVQLVQSGAEVKKPGSSVKVSCKASGGTFSDYAISWVRQAPGQGLEWMGRIIPILGVADYAQKFQGRVTITADKSTRTAYMELSSLRSEDTAVYYCARNWADAFDIWGQGTMVTVSS
VL: DIQLTQSPSSLSASVGDRVTITCRASQGISSVLAWYQQKPGKAPKLLIYDASSLESGVPSRFSGSGSGTDFTLTISSLQPEDFATYYCQQFDSSITFGQGTKLEIK
notes: as for B1
Human CD33 F177A
  Mean % WT Binding: 67.5%
Human CD33 S181A
  Mean % WT Binding: 116%
Human CD33 A182S
  Mean % WT Binding: 115%
Human CD33 T185A
  Mean % WT Binding: 118%
Human CD33 P189A
  Mean % WT Binding: 116%
Human CD33 T191A
  Mean % WT Binding: 114%
Human CD33 S194A
  Mean % WT Binding: 112%
Human CD33 T200A
  Mean % WT Binding: 111%
Human CD33 Q204A
  Mean % WT Binding: 112%
Human CD33 H206A
  Mean % WT Binding: 110%
Human CD33 N209A
  Mean % WT Binding: 104%
Human CD33 Q213A
  Mean % WT Binding: 115%
Human CD33 G218A
  Mean % WT Binding: 124%
Human CD33 A168S
  Mean % WT Binding: 110%
Human CD33 T222A
  Mean % WT Binding: 121%
Human CD33 T223A
  Mean % WT Binding: 126%
Human CD33 C169A
  Mean % WT Binding: 106%
Human CD33 P235A
  Mean % WT Binding: 108%
Human CD33 Q236A
  Mean % WT Binding: 111%
Human CD33 E170A
  Mean % WT Binding: 123%

B6: Refmab #2 (antibody, V domains shown)
VH: B5 VH
VL: B5 VL
notes: The alanine scan used IgG or Fab
Human CD33 K250A
  Mean % WT Binding: 108 % WT binding
Human CD33 V258A
  Mean % WT Binding: 111 % WT binding
Human CD33 A261S
  Mean % WT Binding: 100 % WT binding
Human CD33 G263A
  Mean % WT Binding: 102 % WT binding
Human CD33 A272S
  Mean % WT Binding: 110 % WT binding
Human CD33 L275A
  Mean % WT Binding: 115 % WT binding
Human CD33 F279A
  Mean % WT Binding: 116 % WT binding
Human CD33 K283A
  Mean % WT Binding: 102 % WT binding
Human CD33 T284A
  Mean % WT Binding: 119 % WT binding
Human CD33 R291A
  Mean % WT Binding: 122 % WT binding
Human CD33 P244A
  Mean % WT Binding: 112 % WT binding
Human CD33 D298A
  Mean % WT Binding: 81.5 % WT binding
Human CD33 T303A
  Mean % WT Binding: 96.7 % WT binding
Human CD33 P308A
  Mean % WT Binding: 89.7 % WT binding
Human CD33 K313A
  Mean % WT Binding: 108 % WT binding
Human CD33 S314A
  Mean % WT Binding: 95.5 % WT binding
